The record followed here is the supplement of paper PMC5998384.

Data set [1] has as its system HeLa Kyoto. Briefly: thermal stability score vs G1/S (z-score of summed log2 fold changes over temperatures); higher = more thermally stable than in G1/S.
For data set [2], the system named is HeLa Kyoto. Briefly: solubility change mitosis vs G1/S (difference of NP-40 vs SDS log2 ratios) (log2 ratio difference); higher = more soluble in mitosis.
The subject of data set [3] is HeLa Kyoto. Briefly: melting temperature (median over replicates), in situ; higher = more thermally stable.
The test system of data set [4] is HeLa Kyoto. The experiment in a line: solubility in G1/S (NP-40 vs SDS abundance) (log2 ratio); higher = more soluble. To be noted: cell cycle stage: G1/S.
Setting [5] is: cell cycle stage: early G1 (4.5 h after nocodazole release).
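For melting temperature (median over replicates), in situ in this document: HeLa Kyoto cells synchronized by double thymidine or nocodazole block, proteins quantified by TMT10plex mass spectrometry, three independent biological replicates.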
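For solubility change mitosis vs G1/S (difference of NP-40 vs SDS log2 ratios) in this document: synchronized HeLa Kyoto cells (double thymidine block for G1/S, nocodazole release for mitosis), protein amounts in NP-40 versus SDS lysates quantified by mass spectrometry, three biological replicates.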
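For solubility in G1/S (NP-40 vs SDS abundance) in this document: HeLa Kyoto cells arrested at G1/S by double thymidine block, proteins quantified by TMT10plex mass spectrometry in mild NP-40 versus SDS extracts, three biological replicates.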
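For thermal stability score vs G1/S (z-score of summed log2 fold changes over temperatures) in this document: synchronized HeLa Kyoto cells, proteins quantified by TMT10plex mass spectrometry, three biological replicates, mitosis taken 0.5 h after nocodazole release, G1/S directly after double thymidine block.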

For the sequence “MAGTSAPGSKRRSEPPAPRPGPPPGTGHPPSKRARGFSAAAAPDPDDPFGAHGDFTADDLEELDTLASQALSQCPAAARDVSSDHKVHRLLDGMSKNPSGKNRETVPIKDNFELEVLQAQYKELKEKMKVMEEEVLIKNGEIKILRDSLHQTESVLEEQRRSHFLLEQEKTQALSDKEKEFSKKLQSLQSELQFKDAEMNELRTKLQTSERANKLAAPSVSHVSPRKNPSVVIKPEACSPQFGKTSFPTKESFSANMSLPHPCQTESGYKPLVGREDSKPHSLRGDSIKQEEAQKSFVDSWRQRSNTQGSILINLLLKQPLIPGSSLSLCHLLSSSSESPAGTPLQPPGFGSTLAGMSGLRTTGSYDGSFSLSALREAQNLAFTGLNLVARNECSRDGDPAEGGRRAFPLCQLPGAVHFLPLVQFFIGLHCQALQDLAAAKRSGAPGDSPTHSSCVSSGVETNPEDSVCILEGFSVTALSILQHLVCHSGAVVSLLLSGVGADSAAGEGNRSLVHRLSDGDMTSALRGVADDQGQHPLLKMLLHLLAFSSAATGHLQASVLTQCLKVLVKLAENTSCDFLPRFQCVFQVLPKCLSPETPLPSVLLAVELLSLLADHDQLAPQLCSHSEGCLLLLLYMYITSRPDRVALETQWLQLEQEVVWLLAKLGVQSPLPPVTGSNCQCNVEVVRALTVMLHRQWLTVRRAGGPPRTDQQRRTVRCLRDTVLLLHGLSQKDKLFMMHCVEVLHQFDQVMPGVSMLIRGLPDVTDCEEAALDDLCAAETDVEDPEVECG [ATRIP]”, the values for the thermal stability score in the data set with HeLa Kyoto [1] (setting [5]) and in the data set with HeLa Kyoto [1] (cell cycle stage: mitosis) were 0.257 and 0.455, respectively. The “solubility change mitosis (log2)” value in the data set on HeLa Kyoto [2] was found to be 0.065. Further, the melting temperature in the data set on HeLa Kyoto [3] (cell cycle stage: G1/S) is 50.9 °C; with HeLa Kyoto [3] (cell cycle stage: mitosis) it was 51.5 °C. The “solubility in G1/S (log2)” value in the data set with HeLa Kyoto [4] came out at 0.243.
As to “MAGVACLGKAADADEWCDSGLGSLGPDAAAPGGPGLGAELGPGLSWAPLVFGYVTEDGDTALHLAVIHQHEPFLDFLLGFSAGTEYMDLQNDLGQTALHLAAILGETSTVEKLYAAGAGLCVAERRGHTALHLACRVGAHACARALLQPRPRRPREAPDTYLAQGPDRTPDTNHTPVALYPDSDLEKEEEESEEDWKLQLEAENYEGHTPLHVAVIHKDVEMVRLLRDAGADLDKPEPTCGRSPLHLAVEAQAADVLELLLRAGANPAARMYGGRTPLGSAMLRPNPILARLLRAHGAPEPEGEDEKSGPCSSSSDSDSGDEGDEYDDIVVHSSRSQTRLPPTPASKPLPDDPRPV [NFKBIB]”, the thermal stability score was 0.217 with HeLa Kyoto [1] (setting [5]) and 0.0879 in the data set with HeLa Kyoto [1] (cell cycle stage: mitosis). Also, in the data set on HeLa Kyoto [2], the “solubility change mitosis (log2)” value was -0.224. Besides, the melting temperature was found to be 49.3 °C in the data set on HeLa Kyoto [3] (cell cycle stage: G1/S) and 50 °C in the data set on HeLa Kyoto [3] (cell cycle stage: mitosis). For the same sequence, the “solubility in G1/S (log2)” value with HeLa Kyoto [4] is 0.533.
Turning to “MAGVEEVAASGSHLNGDLDPDDREEGAASTAEEAAKKKRRKKKKSKGPSAAGEQEPDKESGASVDEVARQLERSALEDKERDEDDEDGDGDGDGATGKKKKKKKKKRGPKVQTDPPSVPICDLYPNGVFPKGQECEYPPTQDGRTAAWRTTSEEKKALDQASEEIWNDFREAAEAHRQVRKYVMSWIKPGMTMIEICEKLEDCSRKLIKENGLNAGLAFPTGCSLNNCAAHYTPNAGDTTVLQYDDICKIDFGTHISGRIIDCAFTVTFNPKYDTLLKAVKDATNTGIKCAGIDVRLCDVGEAIQEVMESYEVEIDGKTYQVKPIRNLNGHSIGQYRIHAGKTVPIVKGGEATRMEEGEVYAIETFGSTGKGVVHDDMECSHYMKNFDVGHVPIRLPRTKHLLNVINENFGTLAFCRRWLDRLGESKYLMALKNLCDLGIVDPYPPLCDIKGSYTAQFEHTILLRPTCKEVVSRGDDY [METAP2]”, the thermal stability score in the data set with HeLa Kyoto [1] (setting [5]) was -2.19; in the data set with HeLa Kyoto [1] (cell cycle stage: mitosis) it was -2.92. Also, in the data set on HeLa Kyoto [2], the “solubility change mitosis (log2)” value is -0.0109. In addition, the melting temperature amounted to 58.1 °C in the data set on HeLa Kyoto [3] (cell cycle stage: G1/S) and 57 °C in the data set with HeLa Kyoto [3] (cell cycle stage: mitosis). Besides, the “solubility in G1/S (log2)” value in the data set with HeLa Kyoto [4] was -0.0489.
